# Experiment: yeast display, Sf9 membrane polyspecificity reagent, FACS + sequencing; frameworks hold sequencing errors
# Outline: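 Nanobodies came from a synthetic yeast display library in Saccharomyces cerevisiae BJ5465, induced with galactose for 36–48 hours and stained for 1 hour at 4 °C with 10% biotinylated, detergent-solubilized Sf9 membrane reagent. Cells were enriched on streptavidin microbeads and then FACS-sorted, with low and high (top ~1%) gates set on anti-HA fluorescence for expression and streptavidin fluorescence for reagent binding. Each polyreactivity label reflects the gate a clone came from. Genes were amplified by colony PCR, sequenced by MiSeq 2 × 250 and filtered by CDR length.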
row,Sequence,polyreactivity (PSR sort gate)
1,QVQLVESGGGLVQAGGSLRLSCAASGLTLSYYAMGWYRQAPGKERELVAAISSGGSTYYADSVKGRFTISRDNAKNTVYLQMNSLKPEDTAVYYCAAQWWRLYWEYYYWGQGTQVTVSS,low polyreactivity
2,QVQLVESGGGLVQAGGSLRLSCAASGSIFVLNAMGWYRQAPGKERELVAAITGTGDRTYYADSVKGRFTISRDNAKNTVYLQMNSLKPEDTAVYYCAATVGDAYYEYDYWGQGTQVTVSS,low polyreactivity
3,QVQLVESGGGLVQAGGSLRLSCASSGFTFFRNAMGWYRQAPGKERELVAAISGSGGRTYYADSVKGRFTISRDNAKNTVYLQMNSLKLEDTAVYYCAAVPVDPGYDYWGQVTQVTVSS,high polyreactivity
4,QDHLVESGVGLVQAGGSLRLSCAASGFAFWTYTMGWYRQAPGKERELVATITRGGRTKYADSVKGRFTISRDNAKNTVYLQMNSLKPEDTAVYYCAAARRRTGVRMDYWGLGTQVTVSS,high polyreactivity
5,QVQLEESGGGLVQAGGSLRLSCAASGYIFQSYAMGWYRQAPGTERELVAAISRGGSTYYADSVKGRFTISRDNAMNSVYLQMNSLKPEDTAVYYCNTLTVGGFRRYYYWGQGSQVTVSS,high polyreactivity
6,QVQLVESGGGLVQAGGILRLSCAASVRIFGVYAMGWYRQAPGKERELVAAITSGGSTTYADSVKGRFTISRDNAKNNVYLQMNSLKQEDTAVYYCNKEPQPFFLYGYWGQGTQVTVSS,low polyreactivity
7,QVQLVESGGGLVQAGGSLRLSCAASGRTFIYNVMGWYRQAPGKERELVASIRSSGGSTYYADSVKGRFTISRDNAKNTVYLQMNSLKPEDTAVYYCAADRSPGIRGWPGDYWGQGTQVTVSS,low polyreactivity
8,QVQLVESGGGIVQAGGSLRLSCAASGNTFYAYTMGWYRPAPGKERELVAAISSDGSTNYAVSVKGSVTISRDHAKNTVYLQLNCLKPEDTAVYYCAKYTSSRFEYDYWGHGTQVTVSS,low polyreactivity
9,QVQLVESGGGLVQAGGSLRLSCAASGIIFAYYAMGRSRQAPGKEMEFVAGISCSGSSTNYADSVKGRFTISRDNAKNTVYFQMNSLKPEDTAVYYCAARSRRYHRTKPKYDYWGQGTQVTVSS,high polyreactivity
10,QGQLVESGGGLVQAGGSLRLSCAASGFTFPGYAMGWYRQAPGNVRELVAAITGSGGRTYYADSVKGRFTISRDNAKNTVYLQMNSLKPEDTAVYYCLARSSYNWYDYWGQGTQVTVSS,high polyreactivity
11,QVQLVESGGGLVQAGGSLRLSCAASGLIFSQYAMGWYRQAPGKEREFVARISSSGGSTYYADSVKGRFTISRDNAKNTVYLQMNSLKPEDTAVYYCAAVGGRNIRVWFRTKYDYWGQGTQVTVSS,low polyreactivity
12,QVQLVESGGGLVQAGGSLSLSCAASGRTFDTYAMGWYRQAPGKERELVASITQSGGTTYYADSVKGRFTISRDNAKNTVYLQMNSLKPEDTAVYYCAARSYGSTSPIRVQLYYWGQGTQVTVSS,high polyreactivity
13,QVQLVESGGGLVQAGGSLRLSCAASGSTAENVMGWYRQAPGKERELVAAISSRGGSTYYADSVKGRFTISRDNAKNTVYLQMNSLKPEDTAVYYCAAEYVSHFSGDRYDYWGQGTQVTVSS,low polyreactivity
14,QVQLVESGGGLVQAGGSLRLSCAASGITFVRYALGWYRPAPGKERELVAAISRRGGSTYYADSVKGRFTISRDNAKNTVYLQMNSLKPEDTAVYYCNAQRPKATVWQLYDSWGQGTQVTVSS,high polyreactivity
15,QVQLVESGGGLVQAGGSLRLSCAASGRTFGYNAMGWYRQAPGKERELVAAITYSGGRTSYADSVKGRFTISRDNAKNTVYLQMNSLKPEDTAFYYCAAQPRYYSGYNYWGQGTQVTVSS,high polyreactivity
16,QVQLVESGGGLVQAGGSLRLSCSASGITFGTYAMGWYRQAPGKERELVASITYGGTNTYYADSVKGRFTISRDNAKNTVCLQMNSLKPEDTAVYYCNADPAVSRGSIATDDYDYWVQGTQVTVSS,low polyreactivity
17,QVQLVESGGGLVQAGGSLRLSCAASGRIFGVNAMGWYRQAPGKERELVADISSGGSTYYADSVKGRFTISRDNAKNTVNLQMNSLTPEYTAVYYCAVDKSVYVSYSFYFEYDYWGQGTQVTVSS,low polyreactivity
18,QVQLVESGGGLVHAGGSLRLSCAASGFNFIVYAMGWYRQAPGKERELVASITYSGGGTYYADSVKGRFTISRDNAKNTVYLQMNSLIPEDTAVYYCNADVSWSYSVYREYGMDYWGQGTQVTVSS,low polyreactivity
19,QVQLVESGGGLVQAGGSLRLSCAASGITFINYDMGWYRQAPGKERELVAAISQIGTSTYYADSVKGRFTISRDNAKNTVYLQMNSLKPEDTAVYYCNARYISTGFRYNYWGQGTQVTVSS,high polyreactivity
20,QVQLVESGGGLVQAGGILRLSCAASGFTLADNTMVWYRQSPGKERELVADITSGASTYYADSVKGRFTISRDNAKNTVYLQMNSLKPEDTAVYYCAALYYWRSGYDYWGQGTQVTVSS,low polyreactivity
21,QVQLVESGGGLVQAGGSLRLSCAASGSIFDWYAMGWYRQAPGKEGELVAAISSGDSTYYADSVKGRFTISRDNAKNTVYLQMNSLKPEDTAVYYGAAVTKLSGIRYNYWGQGTQVTVSS,low polyreactivity
22,QVQLVESVGGLVQAGGSLRLSCASSGSTFGFNAIGWYRKAPVKERELVAANTFSGGTTYYADSVKGRFTISRDNAKNTVYLQMNSLKPEDTAGYYCNAEWWYQYTGPFSPWGEDYWGQGTQVTVSS,low polyreactivity

row,Sequence,polyreactivity (PSR sort gate)
1,QVQLVESVGGLVQAGGSLRLSCAASGLIFPWYAMGWYRQAPGKERELVAAIRWRGGGTYYADSVKGRFTISRDNAKNTVYLQMNSLKPEDTAVYYCAARRPAKGMGYWGQGTQVTVSS,high polyreactivity
2,QVQLVESGGCLVQAGGSLRLSCAASGSTLRYYAMGWYRQAPGKERELDARIRSNGGSTYYADSVKGRFTISRDNANNTVYLQMNSLKPEETAVYYCAARTYRGQYYTGFGFGYWGQGSQVTVSS,high polyreactivity
3,QVQLVESGGGIVQAGGSLSLSCAASGSTFSIYAMGWSRQATGTEREVVAAISGSGSRTYYADSVKGRFTISRDNEKNSVYLQMNMLKPEDTAVYYCAALGRHRDGFDFNYWGQGTQVTLSS,high polyreactivity
4,QVQLVESGGGLVQAGGSLRLSCAASGSTLGYYTMGWYIQAPGKERELVAAITRSGGSTYYADSVKGRFTISRDNAKNTVYLQMNSLKPEDTAVYYCAARSYQGTSSGRVTRRYDYWGQGTQVTVSS,high polyreactivity
5,QVQLVESGGGLVQAGGSLRLSCAASGRIFYYNGMGWYRQAPGKERELVAAISRGGSTYYADSVKGRFTISRDNAKNTVYLQMNSLKPEDTAVYYCAARWKPPYWGRYYYWGQGTQVTVSS,high polyreactivity
6,QVQLVESGGGLVQAGGSLRISCAASGRTFARYVMGWYRQAPGKERELVAAISGGGGSTYYADSVKGRLTISRDTAKNTVFLQMNSLKPAETAVYYCAAVPEGPNTGDDANGLDYWGQGTQVTVSS,low polyreactivity
7,QVQLVESGGGLVQTGGTLRLSCAASGRSFNRNARAWYRLAPGKERELVAAISSRVGRTYYADSVKGRFTISRDNAKNSVYLKMNSLKQEETAVYYCNAVYSQSCYFYRFDYWGQGTQVNVSS,high polyreactivity
8,QVQLVESGGGLVQAGGSLRLSCAASGSTIDGYAMAWYRQAPGKERELVAAISRRGGSTYYADSVKGRFTISRDNATNTVYLLMNSLTPEDTAVYYCNRYPPRRYYARYYSWGQGTQVTVSS,high polyreactivity
9,QVQLVESGGGLVQAGGSLRLSCAASGSIIDYNAMGWYRQAPGKERELVAAIDWSGSSTYYADSVKGRFTISRDNAKNTVYLQMNSLKPEDTAVYYCNALAYYGMDYWGQGTQVTVSS,low polyreactivity
10,QVQLVESVGGLVQAGGILRLSCAPSGSTSYGNAMGWYRQAPAKVRELVAAISSSGSSTYYADSVKGRFTISRDNAKNTVYLQMNSLKPEDTAVYYCNKRRSHSYYSRRFDYWGQGTQVTVSS,high polyreactivity
11,QVQQQESGGGLVQAGGSLRLSCAASGTIFQLTFMGRYRQAPGKERELVASIDYGGNTNYADSVKGRFTISRDNAKNNVYLQMNSLKPEDTAVYYCAASSDSWTTHPYWGQGTHVTVSS,low polyreactivity
12,QVQLVESGRGLVQAGGSLRLSCAASGRIFKAYAMGWYRQAPGKERELVAAISRSGGRTFYADSVKGRFTISRDNAKNTVYLQMNSLKPEDTAVYYCAVDVSPDSEYYYWGQGTQVTVSS,high polyreactivity
13,QVQLVESGGGLVQAGGSLRLSCAASGFTFYAYAMGWYRQAPGKERELVAVITGGGSTYYADSVKGRFTISRDNAKNTVYLQMNSLKPEDTAVYYCAATYRGWLVGNGVWYWYYYWGQGTQVTVSS,high polyreactivity
14,QVQLVESGGGLVQAGGSLRLSCAATGFTFYGYAMGWYRQAPGKERELVAAISRRSSSTYYADSVKGRFTISRDNAKNTVYLQMNSLKPEDTAVCYCNTVFQRSGYAAGVDYWGQGTQVTVSS,high polyreactivity
15,QVQLVESGGGLVQAGGSLRLSSAAAGRLLSRDAMGWYRQAPGKERELVATLSSGGGTYYADSVKGRFTISRDNSKNTVYLQMNSLKRVDTAVYYCAVQAWYGRYYYWGQGTQVTVSS,high polyreactivity
16,QVQIVESGGGLVQAGGSLRLSCAPSGSNIDYNDMGRYRQAPGKEWELVAAISGRGTRTYYADSVKGRFTISRDNAKNTVYLQMNSLKPEDTAVYYCAASTRGRYWGRFGYWGQRTQVTVSS,high polyreactivity
17,QVQLEDSGGGLVQAGARLRLSCAASGSTFAQNAMGRYRQAPGKERELVAAITYSGGSTYYADSVKGRFSISRDNAKNTVYLQMNSLKPEDTAVYYCAADVWWSYYRYDYWGQATQVTVSS,low polyreactivity
18,HVQLVESGGGLVQAGGSLRLSCAASGRTFLGNAMGWYRQAPGKERQLVAVITGSGARTYYADSEKGRFTISRDNAKNTVYLQMNSLKPEDTAVYYCAAAGFSGQYRSYYWGQGTQVTVSS,high polyreactivity
19,QVQLVESGGGLVQAGGSLRLSCAASGRTFSHYAMGWYRQAPGKVRELVADISWNGGRTYYADSVKGRFTISRDNAKNTVYLQMNSLKPEDTAVYYCAKVRYWAWSYEYWGQGTQVTVSS,high polyreactivity
20,QDQLVESGGGLVQAGGSLRLICAASGGIFLVYTMGWYRQAPGKERELVAAITSGGSTKYADSVKGRFTISRDNAKNTVYLQMNSLKPEDTAVYYCAAYRRSWRYPSVRYYKYDYWGQGTQVTVSS,high polyreactivity
21,QFQLVESGGGLVQAGGSLRLSCAASGFTFWYYAMGWYRQAPGKERELVARITSRGADTYADSVKGRFTISRDNAKNTVYLQMNSLKPEDTAVYYCAVDPGFSWYEQYDYWGQGTQVTVST,low polyreactivity

# From the nanobody polyreactivity screen of Harvey et al. (2022)
